Publication PMC3466232, “FUS-NLS/Transportin 1 Complex Structure Provides Insights into the Nuclear Targeting Mechanism of FUS and the Implications in ALS” (PLoS ONE, 2012)

T1: human transportin 1 (Trn1, residues 1-890) (human, UniProt Q92973-2 1-890)
T1 construct: transportin 1 (Trn1), human, full-length, residues 1-890; numbers count on: the 890-residue form; Cloned in pGEX-4T-3 with a TEV site; clone was a gift from Y. M. Chook; source: E. coli BL21 (DE3), purified (glutathione Sepharose, TEV cleavage, HiTrap Q FF, Superdex 200)
T1 sequence (looked up): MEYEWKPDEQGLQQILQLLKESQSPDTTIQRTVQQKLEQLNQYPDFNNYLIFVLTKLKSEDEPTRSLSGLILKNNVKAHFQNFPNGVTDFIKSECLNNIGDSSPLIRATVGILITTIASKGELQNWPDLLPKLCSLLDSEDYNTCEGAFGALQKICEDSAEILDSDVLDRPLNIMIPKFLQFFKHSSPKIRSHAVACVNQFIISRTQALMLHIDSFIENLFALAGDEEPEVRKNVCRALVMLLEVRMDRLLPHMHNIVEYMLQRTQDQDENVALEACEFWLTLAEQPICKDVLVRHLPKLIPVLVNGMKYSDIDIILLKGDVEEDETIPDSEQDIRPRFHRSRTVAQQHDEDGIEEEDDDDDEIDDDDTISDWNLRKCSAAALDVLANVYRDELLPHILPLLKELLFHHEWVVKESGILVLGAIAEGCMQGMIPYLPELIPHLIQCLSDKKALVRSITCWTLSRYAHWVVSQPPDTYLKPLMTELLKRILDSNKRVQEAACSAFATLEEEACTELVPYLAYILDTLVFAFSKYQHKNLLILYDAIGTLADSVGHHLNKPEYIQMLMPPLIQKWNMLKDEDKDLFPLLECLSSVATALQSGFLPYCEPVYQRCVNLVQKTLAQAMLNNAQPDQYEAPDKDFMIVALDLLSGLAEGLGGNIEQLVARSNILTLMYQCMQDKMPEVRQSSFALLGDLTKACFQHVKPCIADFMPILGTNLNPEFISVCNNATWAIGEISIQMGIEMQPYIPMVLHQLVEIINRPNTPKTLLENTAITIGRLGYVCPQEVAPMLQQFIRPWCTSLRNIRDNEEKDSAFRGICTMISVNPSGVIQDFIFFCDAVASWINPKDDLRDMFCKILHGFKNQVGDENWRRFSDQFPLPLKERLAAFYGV


target: T1, human transportin 1 (Trn1, residues …); assay: SPR; BIAcore 3000, 25°C; Trn1 immobilised on a CM5 chip by amine coupling (about 8600 RU); same running buffer; kd too fast to be fit, KD from steady state equilibrium binding against the concentration of the injected protein; conditions: both partners purified

Binder	Kd [nM]
RGGRGGGDRGGFGPGKMDSRGEPRQDRRERPY (domain or fragment, human, UniProt P35637 495-526, looked up, ALS-associated mutation found in patients; made by site-directed mutagenesis; not shown: GST, N-terminal, cleaved) [FUS-NLS(H517P)]	140
RGGRGGGDRGGFGPGEMDSRGEHRQDRRERPY (domain or fragment, human, UniProt P35637 495-526, looked up, ALS-associated mutation found in patients; made by site-directed mutagenesis; not shown: GST, N-terminal, cleaved) [FUS-NLS(K510E)]	150
RGGRGGGDRGGFGPGKMDSRGEHGQDRRERPY (domain or fragment, human, UniProt P35637 495-526, looked up, ALS-associated mutation found in patients; made by site-directed mutagenesis; not shown: GST, N-terminal, cleaved) [FUS-NLS(R518G)]	150
RGGRGGGDRGGFGPGKMDSGGEHRQDRRERPY (domain or fragment, human, UniProt P35637 495-526, looked up, ALS-associated mutation found in patients; made by site-directed mutagenesis; not shown: GST, N-terminal, cleaved) [FUS-NLS(R514G)]	67
RGGRGGGDRGGFGPGKMDSRGEHRQDRRERPA (domain or fragment, human, UniProt P35637 495-526, looked up, Designed from the structure; not found in familial ALS patients; not shown: GST, N-terminal, cleaved) [FUS-NLS(Y526A)]	890
RGGRGGGDRGGFGPGKMDSRGEHRQDRGERPY (domain or fragment, human, UniProt P35637 495-526, looked up, ALS-associated mutation found in patients; made by site-directed mutagenesis; not shown: GST, N-terminal, cleaved) [FUS-NLS(R522G)]	350
RGGRGGGDRGGFGPGKMDSRGEHRQDRRERLY (domain or fragment, human, UniProt P35637 495-526, looked up, ALS-associated mutation found in patients; made by site-directed mutagenesis; not shown: GST, N-terminal, cleaved) [FUS-NLS(P525L)]	1200

target: T1, human transportin 1 (Trn1, residues …); assay: SPR; BIAcore 3000, 25°C; Trn1 immobilised on a CM5 chip by amine coupling (about 8600 RU); FUS-NLS injected at increasing concentrations, 50 µl/min; 20 mM HEPES pH 7.3, 110 mM potassium acetate, 2 mM magnesium acetate, 2 mM EGTA, 2 mM DTT, 10% glycerol, 0.005% Tween 20; 1:1 Langmuir fit; conditions: both partners purified

Binder	binding result
RGGRGGGDRGGFGPGKMDSRGEHRQDRRYRPY (domain or fragment, human, UniProt P35637 495-526, looked up, Designed from the structure; not found in familial ALS patients; not shown: GST, N-terminal, cleaved) [FUS-NLS(E523Y)]	binds

target: T1, human transportin 1 (Trn1, residues …); assay: as above; conditions: both partners purified; remark: another data set of the same source

Binder	Kd [nM]	koff [s⁻¹]	kon [M⁻¹ s⁻¹]
RGGRGGGDRGGFGPGKMDSRGEHRQDRRERPY (domain or fragment, UniProt P35637 495-526, looked up, Cloned in pGEX-6P-2; also called FUS-NLS(WT); WT; not shown: GST, N-terminal, cleaved) [nuclear localization sequence of human FUS (FUS-NLS, residues 495-526), wild type]	1.7	0.0037	2.3e+06
RGGRGGGDRGGFGPGKMDSRGEHKQDRRERPY (domain or fragment, human, UniProt P35637 495-526, looked up, ALS-associated mutation found in patients; made by site-directed mutagenesis; not shown: GST, N-terminal, cleaved) [FUS-NLS(R518K)]	13	0.078	6e+06
RGGRGGGDRGGFGPGKMDSRGEHRQDGRERPY (domain or fragment, human, UniProt P35637 495-526, looked up, ALS-associated mutation found in patients; made by site-directed mutagenesis; not shown: GST, N-terminal, cleaved) [FUS-NLS(R521G)]	25	0.0034	140000
RGGRGGGDRGGFGPGKMDPRGEHRQDRRERPY (domain or fragment, human, UniProt P35637 495-526, looked up, ALS-associated mutation found in patients; made by site-directed mutagenesis; not shown: GST, N-terminal, cleaved) [FUS-NLS(S513P)]	2.4	0.023	9.4e+06
RGGRGGGDRGGFGPGKMDSRGEHRQDRRESPY (domain or fragment, human, UniProt P35637 495-526, looked up, ALS-associated mutation found in patients; made by site-directed mutagenesis; not shown: GST, N-terminal, cleaved) [FUS-NLS(R524S)]	10	0.058	5.6e+06
RGGRGGGDRGGFGPGKMDSRCEHRQDRRERPY (domain or fragment, human, UniProt P35637 495-526, looked up, ALS-associated mutation found in patients; made by site-directed mutagenesis; not shown: GST, N-terminal, cleaved) [FUS-NLS(G515C)]	2.8	0.0051	1.8e+06
RGGRGGGDRGGFDPGKMDSRGEHRQDRRERPY (domain or fragment, human, UniProt P35637 495-526, looked up, ALS-associated mutation found in patients; made by site-directed mutagenesis; not shown: GST, N-terminal, cleaved) [FUS-NLS(G507D)]	7.8	0.044	5.7e+06
RGGRGGGDRGGFGPGKMDSRGEHRQDRRSRPY (domain or fragment, human, UniProt P35637 495-526, looked up, Designed from the structure; not found in familial ALS patients; not shown: GST, N-terminal, cleaved) [FUS-NLS(E523S)]	2	1.1e-05	5500
